Measured values as given in patent US20210343368A1, “Method for Engineering Synthetic Cis-Regulatory DNA” (Max-Delbrück-Centrum für Molekulare Medizin in der …, priority 2018, published 2021).

Legend:
[1] = tested on: A549 cells; test: IncuCyte longitudinal MGT #1 fluorescence; assay type: cell-based, human; conditions: GSK126 together with TGFB signaling
Method: IncuCyte: IncuCyte automated longitudinal imaging was performed in 96 wells black walls plates (Greiner). 300,000 cells per plate were seeded to reach optimal confluence at the end of the experiment. GSK126 was aliquoted using a D300e, whereas TGFB1+2 were manually aliquoted to each well. Both were refreshed every second day. The last timepoint was independently verified using a plate reader (BMC Clariostar).
Ezh2 inhibition can support Kras-driven EMT in several mouse and human lung cancer cells^41. In this setting, we tested the use of sLCRs in reflecting cellular and molecular responses to biological and chemical stimuli.

[2] = tested on: A549 cells; test: FACS profile of MGT #1 expression and cell morphology; assay type: cell-based, human
Method: FACS analysis: Analysis was performed with FlowJo_V10.

[3] = tested on: A549-MGT #1low cells; test: Cytokine screening, microplate reader MGT #1 fluorescence; assay type: cell-based, human; conditions: cytokine combined with GSK126
Method: Phenotypic screening: Tumor cells were propagated as described above until the screening. Then we seeded 15′000/50 μl/well in 384 well plates (Corning), in Gibco FluoroBrite DMEM medium supplemented with the appropriate growth factors. Cells were dispensed as 50 μl suspension into each well using the SPARK20M Injector system (50 μl injection volume; 100 μl/s injection speed). For non-adherent cells (e.g. GICs), cells were further centrifuge at 1500 rpm for 1 h30 min at 37° C. Bottom reading fluorescence was scanned using a SPARM 20M TECAN plate reader at 37° C. in a 5% CO2-95% air (3% for GICs) in a humidified cassette, with the following settings for mVenus: Monochromator, Ex 505 nm±20 nm, Em 535 nm±7.5 nm, manual gain:198, flashes: 35, Integration time:40 μs. In independent replicas, cell viability was measured with 0.02% AlamarBlue solution in FluoroBrite medium with the following settings: Fluorescence Top reading. Monochromator, Ex 565 nm±10 nm, Em 592 nm±10 nm, manual gain: 88, flashes: 30, Integration time:40 μs.
DMSO-soluble compounds such as GSK126, were robotically aliquoted using a D300e, whereas cytokines were robotically aliquoted to each well using an Andrew pipetting robot (AndrewAlliance), using the following concentrations:
To exploit Ezh2 inhibition and MGT #1 as a framework to clarify the signaling basis of EMT in NSCLC cells, we next performed a cytokine screening in GSK126- and vehicle-treated A549-MGT #1^low cells.

[4] = tested on: MDA-231 cells; test: FACS of MGT #1 expression in breast cancer cells; assay type: cell-based; conditions: short-term treatment
Method: (§1) The MCF7, MDA-231, A549 and H1944, cell lines (kindly provided by the Rene Bernards lab, NKI) were cultured in RPMI medium. All cell lines were supplemented with 10% FBS, and 5% penicillin and streptomycin at 37° C. in a 5% CO2-95% air incubator.
(§2) Tumor subtypes are genetically engraved in breast cancer cells^40. […] To confirm that MGT #1 expression reflects that actual breast cancer subtype identity, we FACS sorted and sub-cloned the top MCF7-MGT #1 and the mid MDA-231-MGT #1 expressing cells. Nevertheless, further propagation of the FACS-sorted populations reestablished pre-sorting homeostasis, with MCF7 expressing lower levels of MGT #1 than MDA-231.

[5] = tested on: MCF7 cells; test: FACS of MGT #1 expression in breast cancer cells; assay type: cell-based
Method: as §1, §2

[6] = tested on: MES-hGICs-MGT #1dim xenografts; test: Orthotopic glioma xenograft, genetic tracing of MGT #1; assay type: in vivo, NSG mice
Method: Tissue dissection and Cell surface staining: Brain tumor dissection was previously described in detail^77. Briefly, the tissue was dissected with a scalpel, digested in Accutase/DNasel (947 μl Accutase, 50 μl DNase I Buffer, 3 μl DNase I) at 37° C. until needed. Filtered through a 120 μm cell strainer first and a 40 μm cell strainer before RBC lysis (NH4Cl, 155 mM; KHCO3, 10 mM; EDTA, pH 7.4, 0.1 mM). After washing in cold PBS, viability and cell count were assessed automatically with 0.4% Trypan Blue staining using a TECAN SPARK20M.
When surface markers were assessed, typically, 200.000 cells/antibody were used in 15 ml Falcons. Staining volume was 50 μl in RHB-A medium with primary antibody (e.g. CD133-APC; Miltenyi), on ice, in the dark, for 30′. […] Depending on whether cells were analyzed or sorted, data acquisition was performed on the BD LSRFortessa or cells were sorted using the BD Aria II or a Astrios Moflo. The appropriate laser-filter combinations were chosen depending on the fluorophores being analyzed. Typically, to remove dead cells, events were first gated on the basis of shape and granularity (FSC-SSC), and we used as viability dyes either AnnexinV or LIVE/DEAD Fixable Aqua Dead Cell Stain Kit (depending on the fluorophores being analyzed). […]
We intracranially transplanted MES-hGICs-MGT #1^dim cells into NSG mice and longitudinally monitored tumor formation. […]

[7] = tested on: T98G cell line; test: sLCR-mCherry reporter expression and reprogramming in a glioma cell line; assay type: cell-based; conditions: transient over-expression of SALL3, SOX2 and POU3F2
Method: The T98G and U87MG (kindly provided by the van Tellingen lab, NKI) were propagated in EMEM medium. For the experiments in FIG. 13a, T98G were switched to RHB-A supplemented with EGF (20 ng ml-1), bFGF (20 ng ml-1), heparin (1 μg ml-1) and 5% penicillin and streptomycin and propagated first on standard tissue culture-treated plastic, then in ultra-low binding plastic (CORNING).
The Proneural GBM is thought to represent the common GBM ancestor subtype and also to reflect an oligodendrocytic cell-of-origin^26′^37. […] To test whether a PN sLCR would mirror the Proneural state, we decided to induce reprogramming of a FBS-driven conventional cell line into a PN-GICs using the master TFs underlying the PN identity^38. To this end, we transduced either MGT #1 or PNGT #2 into the T98G cell line, which is characterized by TP53 mutations (https://portals.broadinstitute.org/ccle), which are more likely to be associated with a PN phenotype^16. […] Of note, these set of experiments were conducted with a mCherry fluorescent protein carrying a nuclear localization signaling, thereby excluding that the fluorescent protein intensity (mCherry is brighter than mVenus), localization and stability (mVenus is transmembrane and stabilized) play a major role in the observed phenotypic transitions.

[8] = tested on: MES-hGICs and PN-hGICs; test: FACS of basal sLCR expression in hGICs; assay type: cell-based, human; conditions: growth-factor defined conditions in vitro
Method: FACS sorting: Transduced hGICs were harvested into single cell suspensions and resuspended into cold RHB-A complete and filtered into FACS tubes. Sorting was conducted using BD FACSAria III or Fusion. The appropriate laser-filter combinations were chosen depending on the fluorophores being sorted for. Typically, to remove dead cells, events were first gated on the basis of shape and granularity (FSC-A vs. SSC-A) and doublets were excluded (FSC-A vs. FSC-H). Positive gates were established on PGK-driven and constitutively expressed H2B-CFP as sorting reporter, to sort for populations with low to medium intensity of sLCR-dependent fluorophore expression.
Next, we transduced Proneural (PNGT #1-2) and Mesenchymal (MGT #1-2) sLCRs lentiviral particles into spontaneously immortalized human neural progenitor cells that acquired high copy number of PDGFRA, c-Myc and CDK4. To recapitulate the common PN and MES GBM genetic backgrounds, we further engineered hGICs to be depleted of PTEN and either bear IDH1^R132 and TP53^R273H point mutations or be further depleted of TP53 and NF1, thereby generating PN-hGICs and MES-hGICs, respectively. These cells show DNA methylation profiles similar to GBM patients and acquire subtype-specific gene-expression in vivo and therefore represent two distinct GBM subtypes.

## CC[C@H](C)n1cc(C)c2c(C(=O)NCc3c(C)cc(C)[nH]c3=O)cc(-c3ccc(N4CCNCC4)nc3)cc21 [GSK126]
[1]
  MGT #1 fluorescence, longitudinal measurement: cooperatively induced
[2]; combination of TGFB signaling and GSK126
  MGT #1 activation by flow cytometry: synergistically induce MGT #1 activation
[2]; single treatment
  cell morphology change: did not induce a cellular morphology changes
[2]; single treatment, early time point
  MGT #1 expression by flow cytometry: induces molecular transitions to a similar extent
[3]
  MGT #1 expression, fluorescence output: modest additive effect

B1: TGFB2: EMT inducer (protein, UniProt P61812 303-414, looked up)
Transforming growth factor …: ALDAAYCFRNVQDNCCLRPLYIDFKRDLGWKWIHEPKGYNANFCAGACPYLWSSDTQHSRVLSLYNTINPEASASPCCVSQDLEPLTILYYIGKTPKIEQLSNMIVKSCKCS
[4]
  change of basal MGT #1 fluorescence: did not strongly modify the basal MGT #1 fluorescence
[5]; short-term treatment
  change of basal MGT #1 fluorescence: did not strongly modify the basal MGT #1 fluorescence

B2: MGT #1: subtype-specific sLCR for mesenchymal glioblastoma (MES-GBM) (nucleic acid)
chain: ATATTTATTTTTAGGACCAGAAAGTTAAAGTGAATTGGATTTGATCCATTTTCTGAAAGGCTGGCAAGAATTCTTGACATTGCACAGGAATTTCCATGTCAGCATGTTCTCACATGTATGATCTAATTTAGAGATTATTTTGGGGGGCGGGGGTTGAGGAAATGGCATGACTCAGAGTTTAAAAGCCCCAAATCTTAGCTGTGCCTGTGTAGCTTTACCACATAACCCATTGATAACTTAGTTGTGCAACCATCACCACCATCTGTTTTCAGAACTCTTTTCATTTTGCGAAACTGAAACCCGTTAAGCACTGATTTCCCACTCTCCCTCCTCCCAGCCCATAGCAAACCACCATCCCACCAGCACTTTCATTTCGCAAATGGCAAAACTGAAGCCGATATTGTGGTTGTGACTTATCCCAAAGTAATATACACATAAACCTCTATGGATGAGGAAAAAGACAGAGGGAAACTAAAAATTCAAAAGAACAAATTTGACTCACAGATTTGCTGACTCATAGTTGTGACACTTCCTGGCTCAGGAAGTTGAATTTCATTAAGCCTTTGTGGTTTGGGGCTCTGCTGTGCTTTGACAGCTCTGATCTCCTCCCTTCCGGCTGGGCTGTCTGGGGCGCTCTAAAATGAGTGTTGATTTAATGCACTGCCTTCGCACCCGTGCTGGTGCGTCCCGGGGACAGGGGTGGCTGTGCGGTGCCGCGGCGGCCGGCGGGGCTCCTTCCCCAGCAGGGGTGGGGACGCTGAGTCACGGATCTGTCACCGCTTTGCACCTCTCCGAGCCCTCGGGGGCCAAAGCAAAAGCGAAAGCGA
modifications: sLCR
[5]; after lentiviral transduction
  basal MGT #1 expression: lower MGT #1 expression compared to MDA-231 cells
[6]; intracranial transplant, n=10, humane end point
  distribution of MGT #1 expressing cells in the tumor (immunohistochemical staining): well confined within the invasive front
[6]; xenograft-derived tumor cells
  endogenous mVenus fluorescence by flow cytometry, in vivo vs in vitro: vast majority of the tumor cells switched to a MGT #1^low or dark state
[7]
  sLCR reporter expression upon master TFs: neutral to MGT #1 expression
[8]
  basal sLCR expression: higher basal expression in MES-hGICs compared to PN-hGICs
